For experiment [1], the target named is T1, human IGF-1 receptor (human, UniProt P08069 31-1367). The experiment in a line: cell-based or functional assay.
Experiment [2] has as its target T1, human IGF-1 receptor. Nature of the experiment: SPA competition, [125I]-IGF-1, IGF-1R membranes. Here is the method: (§1) Non-specifically bound (NSB) radioactivity was measured in the wells with a four-fold concentration excess of “cold” native ligand than the highest concentration in test samples. Total bound radioactivity was detected in the wells with no competitor. Percent specific binding was calculated as following: % Specific Binding=(Bound-NSB/Total bound-NSB)×100. IC50 values were determined by using Origin software (OriginLab, Northampton, Mass.).

Experiment [3] deals with T2, human insulin receptor (human, UniProt P06213 28-1382).
T2 construct: whole, on cells; Phosphorylation assay: receptor transfected HEK293 cells; also called Insulin
Nature of the experiment: SPA competition, [125I]-insulin, IR membranes. Here is the method:
as §1

The target of experiment [4] is T2, human insulin receptor. The experiment in a line: cell-based or functional assay.

Bridges are numbered along the chain shown (N, C = ends). Roman numbers before positions name the chains, in order. Where no end group is shown, it is not given here. [ ]: non-standard residue; d: D form. Phe(4-NH2) = Nc1ccc(C[C@H](N)C(=O)O)cc1

B1: IGF-1 A (H8 A9 N21): B (H5D10Y16L17 A22) DPI A-COOH (ligand)
chain 1: GIVDECCHASCDLRRLEMYCN-OH
chain 2: GPEHLCGADLVDALYLVCGDAGFY
modifications: not fully specified (C-terminus); ends and bridges not checked
Take B1: the “% IGF” value with human IGF-1 receptor [1] is 7.7%. For the same molecule, in the experiment with human IGF-1 receptor [2], the “% IGF-1 (in test)” value was 2.3%, the concentration for half-maximal inhibition (IC50) came out at 22.8 nM and the “activity (0.55 nM)” value worked out at 2.4%.

B2: IGF-1 A: B (E10Y16L17)-E31E32 B-COOH (ligand)
chain 1: GIVDECCFRSCDLRRLEMYCA-NH2
chain 2: GPETLCGAELVDALYLVCGDRGFYFNKPTEE-OH
modifications: disulfide I:6-I:11, I:20-II:18, I:7-II:6; ends not checked
Consider B2, for which the “activity (0.55 nM)” value with human IGF-1 receptor [2] amounted to 3.1%.

B3: IGF-1 A: B (E10Y16L17) DPI (ligand)
A chain: GIVDECCFRSCDLRRLEMYCA-NH2
B chain: GPETLCGAELVDALYLVCGDRGFY-NH2
modifications: disulfide I:6-I:11, I:20-II:18, I:7-II:6; not fully specified
As for B3, the “activity (0.55 nM)” value in the experiment with human IGF-1 receptor [2] amounted to 2.4%.

B4: IGF-1 A (H8 A9 N21): B(H5D10Y16L17) DPI A-COOH (ligand)
chain 1: GIVDECCHASCDLRRLEMYCN-OH
chain 2: GPEHLCGADLVDALYLVCGDRGFY-NH2
modifications: disulfide I:6-I:11, I:20-II:18, I:7-II:6; ends not checked
Regarding B4, in the experiment with human IGF-1 receptor [1], the “% IGF” value stood at 181%. For the same molecule, the “activity (0.55 nM)” value in the experiment with human IGF-1 receptor [2] stood at 13.6%.

B5: IGF-1 A: B (H5D10Y16L17) DPI (ligand)
chain 1: GIVDECCFRSCDLRRLEMYCA-NH2
chain 2: GPEHLCGADLVDALYLVCGDRGFY-NH2
modifications: disulfide I:6-I:11, I:20-II:18, I:7-II:6; ends not checked
For the molecule B5, the “% IGF” value in the experiment with human IGF-1 receptor [1] came to 7.1%. Also, the “activity (0.55 nM)” value with human IGF-1 receptor [2] stood at 11.8%.

B6: IGF1 A:B(Y^B16L^B17)(p-NH2-F)^A19amide (ligand)
chain 1: GIVDECCFRSCDLRRLEM[Phe(4-NH2)]CA
chain 2: GPETLCGAELVDALYLVCGDRGFYFNKPT-NH2
modifications: disulfide (positions not given here); not fully specified (bridges); also: C-terminal amide, chain not given here
The molecule B6 displayed an IC50 in the experiment with human insulin receptor [3] of 1.08 nM.

B7: IGF-1 A: IGF-1 B (1-8)-In (9-17)-IGF-1 B (18-30) (ligand)
chain 1: GIVDECCFRSCDLRRLEMYCA-NH2
chain 2: GPETLCGSHLVEALYLVCGDRGFYFNKPT-NH2
modifications: disulfide I:6-I:11, I:20-II:18, I:7-II:6; ends not checked
Consider B7, for which the “activity (0.55 nM)” value with human IGF-1 receptor [2] came out at 0.4%.

B8: IGF-1 A: B (D10Y16L17) DPI A-COOH (ligand)
chain 1: GIVDECCFRSCDLRRLEMYCA-OH
chain 2: GPETLCGADLVDALYLVCGDRGFY-NH2
modifications: disulfide I:6-I:11, I:20-II:18, I:7-II:6; ends not checked
Regarding B8, the “% Insulin” value with human insulin receptor [4] turned out to be 1580%. Also, in the experiment with human IGF-1 receptor [1], the “% IGF” value turned out to be 112%. Also, in the experiment with human IGF-1 receptor [2], the “activity (0.55 nM)” value was 8.1%.

B9: IGF-1 A: In (1-17)-IGF-1 B (18-30) (ligand)
chain 1: GIVDECCFRSCDLRRLEMYCA-NH2
chain 2: FVNQHLCGSHLVEALYLVCGDRGFYFNKPT-NH2
modifications: disulfide I:6-I:11, I:20-II:19, I:7-II:7; ends not checked
On to B9, for which the “activity (0.55 nM)” value with human IGF-1 receptor [2] was 0.9%.

B10: IGF-1 A: In B (1-5)-IGF-1 B (YL) (6-30) (ligand)
A chain: GIVDECCFRSCDLRRLEMYCA-NH2
B chain: FVNQHLCGAELVDALYLVCGDRGFYFNKPT-NH2
modifications: disulfide I:6-I:11, I:20-II:19, I:7-II:7; not fully specified
As to B10, the “activity (0.55 nM)” value with human IGF-1 receptor [2] came out at 2%.

A word on the IC50: it is the concentration that gives 50% inhibition. A low value points to greater potency in that assay.
